This is an account of results in patent publication US8273342B2, “Anti-virus therapy for respiratory diseases” (University of Southampton, priority 2004, dated 2012).

Assay [1] deals with RV16. As to the kind of experiment: RV16 viral RNA in BEAS2B cell lysates, TaqMan PCR. The class given is cell-based, rhinovirus. The note with it: BEAS2B cells treated 24 h with different doses of IFN-λ1 before infection. The procedure: (§1) The human bronchial epithelial cell-line BEAS2B was infected with RV. TaqMan® PCR was used to identify IFN-λs mRNA expression and a bioassay was employed for corresponding protein production. BEAS2B cells were treated for 24 h with different doses of IFN-λ1 before infection with RV. Both TaqMan® PCR for viral RNA in cell lysates and viral titration of the BEAS2B supernatant were performed to investigate the antiviral effect.
(§2) The human bronchial epithelial cell-line BEAS2B and bronchial primary cells from asthmatics (6) and normal patients (5) were infected with RV16. TaqMan® PCR for IFN-λ mRNA expression was used. BEAS2B cells were treated with IFN-λ1 before infection with RV16. Both TaqMan® PCR for viral RNA in cell lysates and viral titration of the BEAS2B supernatant were performed to investigate the antiviral effect. TaqMan® PCR for viral RNA in cell lysates of primary cells was used also to test weather RV16 infectivity was different between primary cells from asthmatics and normals.
(In general: In qPCR the cycle at which signal appears reflects the starting amount.)

In a further assay the test system is BEAS2B cells. The assay can be described thus: Induction of type I and type III interferons in BEAS2B cells. The class given is cell-based, human.
Assay [2] has as its system rhinovirus. As to the kind of experiment: Virus induced cytopathic effect in HeLa cell titration assay. In kind it is cell-based. In general terms: Protection from cytopathic effect is a common read-out in antiviral testing.
Assay [3] concerns RV16. The assay can be described thus: RV16 virus release, viral titration of BEAS2B supernatant. The class given is cell-based, rhinovirus. The note with it: BEAS2B cells treated 24 h with different doses of IFN-λ1 before infection. As to the method:
as §1, §2

In a further assay the test system is natural colds. To be noted: Sperber et al. 1989; cited from earlier work.
In assay [4] the test system is rhinovirus. The note with it: general population volunteers, Higgins et al. 1986; cited from earlier work.

B1: IFN-λ1: type III interferon, Interferon λ-1 also known as IL-29, amino acid sequence SEQ ID NO: 5 (protein, listed as Homo sapiens)
chain: MAAAWTVVLVTLVLGLAVAGPVPTSKPTTTGKGCHIGRFKSLSPQELASFKKARDALEESLKLKNWSCSSPVFPGNWDLRLLQVRERPVALEAELALTLKVLEAAAGPALEDVLDQPLHTLHHILSQLQACIQPQPTAGPRPRGRLHHWLHRLQEAPKKESAGCLEASVTFNLFRLLTRDLKYVADGNLCLRTSTHPEST
For B1, the “rhinovirus 16 viral RNA in cell lysates” value in the assay on RV16 [1] is given as “dose-dependent anti-viral effect”; with RV16 [1] (listed as IFNλ-1), “reducing rhinovirus 16 viral RNA expression”. Also, the “induction of IFNλ-1, IFNλ2-3 and interferon β” value with BEAS2B cells was “induces itself as well as IFNλ2-3 and interferon β”. Also, the “virus induced cytopathic effect” value with rhinovirus [2] was “inhibited”. The “virus release in the supernatant by viral titration” value with RV16 [3] was “dose-dependent anti-viral effect”; with RV16 [3] (listed as IFNλ-1), “reducing virus release”.

B2: IFN-β-ser: recombinant interferon-beta serine, nasal drops tested in published prophylaxis trials (protein, UniProt P01574 22-187, looked up, variant C17S)
Interferon beta: MSYNLLGFLQRSSNFQSQKLLWQLNGRLEYCLKDRMNFDIPEEIKQLQQFQKEDAALTIYEMLQNIFAIFRQDSSSTGWNETIVENLLANVYHQINHLKTVLEEKLEKEDFTRGKLMSSLHLKRYYGRILHYLKAKEYSHCAWTIVRVEILRNFYFINRLTGYLRN
Consider B2, for which the “prophylaxis of natural colds” value in the assay on natural colds is listed as “ineffective”. For the same molecule, the “effect against experimental rhinovirus infection” value in the assay on rhinovirus [4] is given as “promising beneficial effects”.
